In publication PMC7067828, “FAM111A protects replication forks from protein obstacles via its trypsin-like domain”:

Tests used:
[1] = target: Strep-FAM111A (human, UniProt Q96PZ2 1-611); assay: fluorescence polarization; EMSA: 25 mM Tris-HCl pH 7.5, 5 mM MgCl2, 10% glycerol, 20 ng/ul BSA, 1 mM DTT, 0.7 pmol DNA in 10 ul, on ice 1 h; FP: 10 mM HEPES-NaOH pH 7.5, 150 mM NaCl, 10 nM DNA; conditions: protein: recombinant; tags: N-terminal tandem Strep; label: 5' 6-FAM; single strand
[2] = target: MBP-FAM111A 176-282 (human, UniProt Q96PZ2 176-282); assay: EMSA; 5 mM Mg2+; EMSA: 25 mM Tris-HCl pH 7.5, 5 mM MgCl2, 10% glycerol, 20 ng/ul BSA, 1 mM DTT, 0.7 pmol DNA in 10 ul, on ice 1 h; FP: 10 mM HEPES-NaOH pH 7.5, 150 mM NaCl, 10 nM DNA; conditions: protein: recombinant; tags: N-terminal MBP; label: 5' IRDye700; single strand
[3] = target: MBP-FAM111A 1-282 (human, UniProt Q96PZ2 1-282); assay: as above; conditions: protein: recombinant; tags: N-terminal MBP; label: 5' IRDye700; single strand
[4] = target: T1, GST-FAM111A-strep (human, UniProt Q96PZ2 1-611); assay: as above; conditions: protein: recombinant, tags: N-terminal GST, C-terminal tandem Strep
[5] = target: T1, GST-FAM111A-strep; assay: EMSA; 5 mM Mg2+; up to 450 nM protein; EMSA: 25 mM Tris-HCl pH 7.5, 5 mM MgCl2, 10% glycerol, 20 ng/ul BSA, 1 mM DTT, 0.7 pmol DNA in 10 ul, on ice 1 h; FP: 10 mM HEPES-NaOH pH 7.5, 150 mM NaCl, 10 nM DNA; conditions: protein: recombinant; tags: N-terminal GST, C-terminal tandem Strep; label: 5' IRDye700 on strand 1; fork 1:2 1:3 2:4; both arms double-stranded

T1 sequence (Q96PZ2 whole entry): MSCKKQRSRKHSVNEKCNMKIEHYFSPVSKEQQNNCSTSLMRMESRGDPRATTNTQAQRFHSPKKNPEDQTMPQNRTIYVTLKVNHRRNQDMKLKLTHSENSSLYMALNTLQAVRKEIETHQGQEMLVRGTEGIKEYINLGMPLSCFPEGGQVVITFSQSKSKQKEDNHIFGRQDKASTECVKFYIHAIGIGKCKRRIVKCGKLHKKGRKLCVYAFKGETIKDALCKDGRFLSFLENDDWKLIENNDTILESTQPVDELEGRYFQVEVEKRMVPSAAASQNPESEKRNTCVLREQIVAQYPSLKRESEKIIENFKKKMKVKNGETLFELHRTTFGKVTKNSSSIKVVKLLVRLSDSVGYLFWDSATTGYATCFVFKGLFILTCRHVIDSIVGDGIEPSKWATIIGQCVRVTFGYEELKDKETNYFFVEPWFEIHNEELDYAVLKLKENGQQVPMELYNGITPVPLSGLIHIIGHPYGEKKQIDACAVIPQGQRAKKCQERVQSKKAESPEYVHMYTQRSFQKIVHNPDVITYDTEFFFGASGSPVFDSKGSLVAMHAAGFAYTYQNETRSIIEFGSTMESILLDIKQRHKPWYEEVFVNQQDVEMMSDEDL
Sequence of MBP-FAM111A 1-282 (Q96PZ2 1-282): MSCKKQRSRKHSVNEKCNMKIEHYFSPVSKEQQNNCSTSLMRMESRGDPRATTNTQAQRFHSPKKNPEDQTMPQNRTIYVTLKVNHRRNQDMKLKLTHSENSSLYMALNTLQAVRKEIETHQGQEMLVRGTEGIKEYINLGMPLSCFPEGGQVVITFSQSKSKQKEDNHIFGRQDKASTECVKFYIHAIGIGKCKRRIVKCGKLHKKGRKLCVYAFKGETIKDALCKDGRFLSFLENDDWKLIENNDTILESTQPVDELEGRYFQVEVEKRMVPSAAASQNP
Sequence of Strep-FAM111A (Q96PZ2 whole entry): as the sequence (Q96PZ2 whole entry) above
Sequence of MBP-FAM111A 176-282 (Q96PZ2 176-282): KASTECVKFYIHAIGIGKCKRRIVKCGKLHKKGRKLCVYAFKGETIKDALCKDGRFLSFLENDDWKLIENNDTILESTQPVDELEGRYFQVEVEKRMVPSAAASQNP

B1: 6-FAM-O1676 (31 nt) (ssDNA)
DNA: CGACGATGCTCCGGTACTCCAGTGTAGGCAT
- Kd [1]: ~60 nM

B2: ssDNA O3063 (75 nt) (ssDNA)
DNA: GTTTTCCCAGTCACGACGATGCTCCGGTACTCCAGTGTAGGCATATTACGAATTCTTGAGGCAGGCATGGTAGCT
- binding result [2]: binds
- binding result [3]: binds
- binding result ([4]; label: 5' IRDye700, single strand): binds

B3: Y fork O3063/O4787 (mixed)
DNA 1: B2 DNA
DNA 2: AGCTACCATGCCTGCCTCAAGAATTCGTAATATGCCTACACTGGACCGTACTTCGCCTAGTAGACTGCCTTCCCG
- binding result ([4]; label: 5' IRDye700 on strand 1, fork 1:2, 45 bp duplex, two 30-nt ss arms): binds

B4: dsY fork O3063/O4787/O3730/O3757 (dsDNA)
DNA 1: B2 DNA
DNA 2: B3 DNA 2
DNA 3: GTACCGGAGCATCGTCGTGACTGGGAAAAC
DNA 4: CGGGAAGGCAGTCTACTAGGCGAAGTACGG
- binding result [5]: no binding
